Among the data in the Immune Epitope Database (IEDB) are Kd values, retold here.

Some targets named below: HLA-A*02:02; HLA-A*02:03; HLA-A*02:06.
Assay in all cases: IEDB peptide-MHC binding, purified MHC/competitive/radioactivity; filed as Kd, often an IC50 or EC50 that approximates it; ≥ and ≤ were set here for values at or beyond the usual limits of such assays
Where [1] appears, read: source organism: Vaccinia virus WR.
Setting [2] is: source organism: SARS coronavirus Tor2.
Where [3] appears, read: source organism: Mammarenavirus machupoense.

AIFNNRNLA: the dissociation constant (Kd) (as a rule, the concentration at which binding is half-saturated) worked out at 272 nM in the test with HLA-A*02:02 (setting [1]), 98.1 nM with HLA-A*02:03 (setting [1]) and 7.07 nM with HLA-A*02:06 (setting [1]).
Regarding AIFNNRNLAA, the Kd is 450 nM with HLA-A*02:02 (setting [1]), 103 nM with HLA-A*02:03 (setting [1]) and 774 nM with HLA-A*02:06 (setting [1]).
On to AISAVYFKA, for which the Kd in the test with HLA-A*02:02 (setting [1]) is 3.65 nM; with HLA-A*02:03 (setting [1]) it was 525 nM; in the test with HLA-A*02:06 (setting [1]), 149 nM.
ALLADKFPV: the equilibrium dissociation constant (Kd) with HLA-A*02:02 (setting [2]) was determined as 29.1 nM; with HLA-A*02:03 (setting [2]), 604 nM; in the test with HLA-A*02:06 (setting [2]) it was 22.8 nM.
ALVFLILCFT: the Kd in the test with HLA-A*02:02 (setting [2]) stood at 209 nM; with HLA-A*02:03 (setting [2]), 1120 nM; with HLA-A*02:06 (setting [2]), 229 nM.
Turning to AVIPFDDIV, the dissociation constant (Kd) in the test with HLA-A*02:02 (setting [1]) turned out to be 313 nM; with HLA-A*02:03 (setting [1]), 241 nM; with HLA-A*02:06 (setting [1]), 42.4 nM.
The matching figures for AVSVYGAIT: 11400 nM, 9610 nM and 14300 nM.
As for DINVIGLIVI, the values for the Kd with HLA-A*02:02 (setting [1]), with HLA-A*02:03 (setting [1]) and in the test with HLA-A*02:06 (setting [1]) were 7150 nM, 2810 nM and 2790 nM, respectively.
For the sequence DLTALLSCI, the Kd was determined as 5200 nM in the test with HLA-A*02:02 (setting [1]), 996 nM with HLA-A*02:03 (setting [1]) and 4880 nM in the test with HLA-A*02:06 (setting [1]).
Regarding DMLLNVQTLI, the dissociation constant Kd with HLA-A*02:02 (setting [1]) was 41.6 nM; with HLA-A*02:03 (setting [1]), 161 nM; with HLA-A*02:06 (setting [1]), 291 nM.
In the case of DVIKSISSI, the dissociation constant (Kd) with HLA-A*02:02 (setting [1]) is at least 63800 nM; in the test with HLA-A*02:03 (setting [1]), 7520 nM; with HLA-A*02:06 (setting [1]), 15000 nM.
Regarding EIRGVLPEET, the Kd is 9600 nM in the test with HLA-A*02:02 (setting [1]), 4870 nM with HLA-A*02:03 (setting [1]) and at least 20100 nM with HLA-A*02:06 (setting [1]).
As for ETLPELNLSL, the Kd with HLA-A*02:02 (setting [1]) is 52.3 nM; with HLA-A*02:03 (setting [1]) it was 130 nM; with HLA-A*02:06 (setting [1]), 134 nM.
As for EVERLMELPV, the Kd was 2460 nM with HLA-A*02:02 (setting [1]), 1430 nM with HLA-A*02:03 (setting [1]) and 3630 nM with HLA-A*02:06 (setting [1]).
FIISTLNKIL: the results for the equilibrium dissociation constant (Kd) with HLA-A*02:02 (setting [1]), with HLA-A*02:03 (setting [1]) and with HLA-A*02:06 (setting [1]) were 5080 nM, 1.8 nM and 8.1 nM, respectively.
Turning to FISSFLLPLT, the dissociation constant Kd was found to be 38.6 nM with HLA-A*02:02 (setting [1]), 44.2 nM with HLA-A*02:03 (setting [1]) and 50.6 nM with HLA-A*02:06 (setting [1]).
For the sequence FITVLTSVDI, the equilibrium dissociation constant (Kd) with HLA-A*02:02 (setting [1]) was determined as 1420 nM; with HLA-A*02:03 (setting [1]), 237 nM; with HLA-A*02:06 (setting [1]), 1270 nM.
On to FLLPSLATV, for which the Kd was determined as 0.134 nM in the test with HLA-A*02:02 (setting [2]), 0.204 nM with HLA-A*02:03 (setting [2]) and 0.411 nM with HLA-A*02:06 (setting [2]).
In the case of FQESFYEDIA, the Kd with HLA-A*02:02 (setting [1]) was 2560 nM; in the test with HLA-A*02:03 (setting [1]), 555 nM; with HLA-A*02:06 (setting [1]), 303 nM.
Regarding FTDCRTIDA, the equilibrium dissociation constant (Kd) with HLA-A*02:02 (setting [1]) was found to be 10900 nM; in the test with HLA-A*02:03 (setting [1]) it was 2680 nM; in the test with HLA-A*02:06 (setting [1]), 2710 nM.
For FVDEFYAYL, the values for the dissociation constant (Kd) with HLA-A*02:02 (setting [2]), with HLA-A*02:03 (setting [2]) and with HLA-A*02:06 (setting [2]) were 0.0886 nM, 2.62 nM and 0.36 nM, respectively.
Turning to FVFNGTSWFI, the dissociation constant (Kd) with HLA-A*02:02 (setting [2]) is 1.01 nM; in the test with HLA-A*02:03 (setting [2]) it was 2.15 nM; with HLA-A*02:06 (setting [2]), 0.439 nM.
GLSQFTHTV: the Kd with HLA-A*02:02 (setting [3]) was 5.28 nM; in the test with HLA-A*02:03 (setting [3]), 7.65 nM; in the test with HLA-A*02:06 (setting [3]), 332 nM.
GLTTHCTKL: the values for the dissociation constant (Kd) with HLA-A*02:02 (setting [1]), in the test with HLA-A*02:03 (setting [1]) and with HLA-A*02:06 (setting [1]) were 100 nM, 30 nM and at least 31600 nM, respectively.
Take HQIFGTAYGV: in the test with HLA-A*02:06 (source organism: Dengue virus 1 Nauru/West Pac/1974), the Kd was determined as 20.6 nM.
Consider HTNHSDISM, for which the dissociation constant Kd is 8810 nM with HLA-A*02:02 (setting [1]), 4140 nM in the test with HLA-A*02:03 (setting [1]) and 1200 nM in the test with HLA-A*02:06 (setting [1]).
As for IASAPQQLCT, the Kd with HLA-A*02:02 (setting [1]) is at least 53200 nM; in the test with HLA-A*02:03 (setting [1]) it was at least 70400 nM; in the test with HLA-A*02:06 (setting [1]), 8320 nM.
In the case of IIFWFSLEI, the values for the Kd in the test with HLA-A*02:02 (setting [2]), in the test with HLA-A*02:03 (setting [2]) and in the test with HLA-A*02:06 (setting [2]) were 1.75 nM, 87 nM and 4.64 nM, respectively.
For the sequence IIMAINVFT, the equilibrium dissociation constant (Kd) with HLA-A*02:02 (setting [1]) worked out at 39.3 nM; in the test with HLA-A*02:03 (setting [1]), 180 nM; in the test with HLA-A*02:06 (setting [1]) it was 10.3 nM.
The matching figures for IIYSKAGNI: 9760 nM, 12.6 nM and 13700 nM.
Take ILEYLYIMRV: the Kd with HLA-A*02:02 (setting [1]) is 73.5 nM; with HLA-A*02:03 (setting [1]), 83.2 nM; in the test with HLA-A*02:06 (setting [1]), 134 nM.
On the same counts, the results for ILSEKRKDTI are at least 44000 nM, 541 nM and at least 69800 nM.
On the same counts, the results for IMECSRMLDT are 5240 nM, 7200 nM and at least 69800 nM.
As for IVAIDLDPV, the Kd with HLA-A*02:06 (source organism: Dengue virus 1 Brazil/97-11/1997) was determined as 11.2 nM.
In the case of IVDSMIIGHI, the dissociation constant (Kd) with HLA-A*02:02 (setting [1]) came out at 507 nM; with HLA-A*02:03 (setting [1]), 208 nM; with HLA-A*02:06 (setting [1]) it was 561 nM.
For IVVALSSLV, the dissociation constant Kd in the test with HLA-A*02:02 (setting [1]) amounted to 26.7 nM; with HLA-A*02:03 (setting [1]), 3.85 nM; with HLA-A*02:06 (setting [1]) it was 8.23 nM.
